{"source": "paper PMC8881573", "about": "“Inhibition of SRP-dependent protein secretion by the bacterial alarmone (p)ppGpp” (Nature Communications, 2022)", "biological_target": "ribosomal protein uL29 (B. subtilis (endogenous in the B. …, UniProt P12873 1-66))", "assay": "cryo-EM structure; (Bs)SRP pre-incubated with pppGpp, tenfold molar excess over MifM-stalled RNCs, 10 min at room temperature", "settings": "both partners purified", "data": [{"binder": "recombinant (Bs)SRP (Ffh and 6S RNA) (natural protein, Ffh, B. subtilis, full length; Ribonucleoprotein: the protein stood with the 6S SRP RNA and with pppGpp or GMPPNP; also called full-length (Bs)Ffh; not shown: 6xHis, N-terminal, cleaved) MAFEGLADRLQQTISKIRGKGKVSEQDVKEMMREVRLALLEADVNFKVVKDFVKKVSERAVGQDVMKSLTPGQQVIKVVQEELTELMGGEESKIAVAKRPPTVIMMVGLQGAGKTTTSGKLANLLRKKHNRKPMLVAADIYRPAAIKQLETLGKQLDMPVFSLGDQVSPVEIAKQAIEKAKEEHYDYVILDTAGRLHIDHELMDELTNVKEIANPEEIFLVVDSMTGQDAVNVAKSFNEQLGLTGVVLTKLDGDTRGGAALSIRAVTNTPIKFAGLGEKLDALEPFHPERMASRILGMGDVLTLIEKAQASVDEDKAKELEQKMRTMSFTLDDFLEQLGQVRNMGPLDELLQMMPGAGKMKGLKNIQVDEKQLNHVEAIIKSMTVLEKEQPDIINASRRKRIAKGSGTSVQEVNRLLKQFDEMKKMMKQMTNMSKGKKKGFKLPFM", "values": [{"measurement": "binding result", "result": "binds"}]}]}
